Reference: US20050154189A1

B1: Round 2 CD28A12-5 (ligand)
chain: ITPKSVTKRVKETVMLSCDYNTSTEELTSLRIYWRKDSKMXLAILPGKVQVWPEYKNRTITDMNDNLRIVILALRLSDSGTYTCVIQKPDLKGAYKLEHLTSVRLMIRADFPVPTINDLGNPSPNIRRLICSTSGGFPRPHLYWLENGEELNATNTTVSQDPGTELYMISSELDFNVTNNHSIVCLIKYGELLVSQIFPWSKPKQEPPIDQLPFWVIIPVSGALVLTAVVLYCLACRHVARWKRTRRNEETVGTERLSPIYLGSAQSSG
modifications: not fully specified; X: residue not identified in the source; ends and bridges not checked; also: glycosylated, sites not given here
B2: Round 2 CD28A4-9 (ligand)
chain: ITPKSVTKRVKETVMLSCDYNTSTEKLTSLRIYWQKDSKMVLAILPGKVQVWPEYKNRTITDMNDNPRIVILALRLSDSGTYTCVIQKPVLKGAYKLEHLTSVRLMIRADFPVPTINDLGNPSPNIRRLICSTSGGFPRPHLYWLENGEELNATNTTVSQDPETKLYMISSELDFNVTNNHSIVCLIKYGELSVSQIFPWSKPKQEPPIDQLPFWVIIPVSGALVLTAVVLYCPACRHVARWKRTRRNEETVGTERLSPIYLGSAQSRAEVPSLSX
modifications: not fully specified; X: residue not identified in the source; ends and bridges not checked

Target: Soluble CD28-Ig (human), P10747
Assay: two-colour FACS profile on transfected cells; score of preference for CD28-Ig over CTLA-4-Ig vs WT hB7-1

Binder	Binding Score
B1	1
B2	1
